One experiment deals with HLA-A*01:01. In words: IEDB peptide-MHC binding, purified MHC/competitive/radioactivity; filed as Kd, often an IC50 or EC50 that approximates it; ≥ and ≤ were set here for values at or beyond the usual limits of such assays.
The target in another experiment is HLA-A*23:01. Described as above.
The next experiment addresses HLA-A*24:02. The description is as above.
The target of the next experiment is HLA-A*26:01. The experiment is described as above.
Another experiment concerns the target HLA-A*29:02. The description is as above.
In a further experiment the target is HLA-A*30:02. The experiment is described as above.
A further experiment has as its target HLA-B*53:01. The experiment is described as above.
The target of another experiment is HLA-B*40:01. The experiment is described as above.
The target of another experiment is HLA-B*15:01. The experiment is described as follows: IEDB peptide-MHC binding, purified MHC/direct/fluorescence; filed as Kd, often an IC50 or EC50 that approximates it; ≥ and ≤ were set here for values at or beyond the usual limits of such assays. Particulars: source organism: Mammarenavirus lassaense.
Another experiment concerns the target HLA-B*44:02. In words: IEDB peptide-MHC binding, purified MHC/competitive/radioactivity; filed as Kd, often an IC50 or EC50 that approximates it; ≥ and ≤ were set here for values at or beyond the usual limits of such assays.
In the next experiment the target is HLA-B*44:03. The experiment is described as above.
Another experiment concerns the target HLA-A*30:01. Described as above. Particulars: source organism: Dengue virus 3 Martinique/1243/1999.
[1] abbreviates: source organism: Lassa virus Josiah.
[2] abbreviates: source organism: Dengue virus 2 Jamaica/1409/1983.
[3] abbreviates: source organism: SARS coronavirus Tor2.
Where [4] appears, read: source organism: Dengue virus 4 Philippines/H241/1956.
[5] abbreviates: source organism: Dengue virus 1 Brazil/97-11/1997.
The mark [6] stands for this setting: source organism: Dengue virus 3 Martinique/1243/1999.
The mark [7] stands for this setting: source organism: Mammarenavirus lassaense.
The mark [8] stands for this setting: source organism: Mammarenavirus choriomeningitidis.
Setting [9] is: source organism: Mammarenavirus guanaritoense.
The mark [10] stands for this setting: source organism: Mammarenavirus whitewaterense.

For orientation: Kd means a measure of binding affinity in units of concentration. Regarding VFRTSTPRVV, the Kd was at least 70400 nM in the experiment with HLA-A*01:01 (setting [1]); at least 70000 nM in the experiment with HLA-A*23:01 (setting [1]); at least 70300 nM in the experiment with HLA-A*24:02 (setting [1]); at least 69700 nM in the experiment with HLA-A*26:01 (setting [1]); at least 71400 nM in the experiment with HLA-A*29:02 (setting [1]); 6350 nM with HLA-A*30:02 (setting [1]).
Consider LIGLTSRATW, for which the Kd with HLA-B*53:01 (setting [2]) is 459 nM.
Consider AWEILKFLI, for which the dissociation constant (Kd) with HLA-A*01:01 (setting [3]) was at least 78100 nM; with HLA-A*23:01 (setting [3]), 3630 nM; with HLA-A*24:02 (setting [3]) it was 2960 nM; in the experiment with HLA-A*26:01 (setting [3]), at least 57000 nM; in the experiment with HLA-A*29:02 (setting [3]), 4100 nM; in the experiment with HLA-A*30:02 (setting [3]), at least 25300 nM.
On to PVNDLKYSW, for which the Kd in the experiment with HLA-B*53:01 (setting [4]) came to 782 nM.
On to LWEGSPGKF, for which the values for the Kd with HLA-A*23:01 (setting [5]) and with HLA-A*24:02 (setting [5]) were 7640 nM and 6160 nM, respectively.
In the case of GLAAEWVLAY, the dissociation constant (Kd) with HLA-A*01:01 (setting [3]) is 466 nM; in the experiment with HLA-A*23:01 (setting [3]), at least 70000 nM; in the experiment with HLA-A*24:02 (setting [3]), at least 70300 nM; in the experiment with HLA-A*26:01 (setting [3]), 363 nM; in the experiment with HLA-A*29:02 (setting [3]), 69.4 nM; in the experiment with HLA-A*30:02 (setting [3]), 858 nM.
On to FIDTIKSLDY, for which the Kd with HLA-A*01:01 (setting [3]) is 458 nM; with HLA-A*23:01 (setting [3]), at least 70000 nM; with HLA-A*24:02 (setting [3]), at least 70300 nM; with HLA-A*26:01 (setting [3]), at least 24900 nM; with HLA-A*29:02 (setting [3]), 506 nM; with HLA-A*30:02 (setting [3]), 4390 nM.
As for TWALCEALTL, the Kd stood at 511 nM in the experiment with HLA-A*23:01 (setting [2]) and 114 nM with HLA-A*24:02 (setting [2]).
As to PATLFVWYF, the equilibrium dissociation constant (Kd) in the experiment with HLA-B*53:01 (setting [5]) amounted to 1890 nM.
As to LPEEQDQNY, in the experiment with HLA-B*53:01 (setting [6]), the Kd stood at 1520 nM.
For FETTMRGAKR, the Kd with HLA-B*40:01 (setting [2]) was 3580 nM.
As to IYVILTILTI, the equilibrium dissociation constant (Kd) with HLA-A*23:01 (setting [4]) is 11.8 nM; with HLA-A*24:02 (setting [4]), 48.6 nM.
As to SYLAGAGLAF, the Kd with HLA-A*23:01 (setting [5]) was determined as 4.35 nM; with HLA-A*24:02 (setting [5]), 71.5 nM.
As to FWITAIYVF, the Kd was found to be 629 nM with HLA-A*01:01 (setting [3]); 163 nM with HLA-A*23:01 (setting [3]); 853 nM in the experiment with HLA-A*24:02 (setting [3]); 547 nM with HLA-A*26:01 (setting [3]); 26.9 nM with HLA-A*29:02 (setting [3]); 22.8 nM in the experiment with HLA-A*30:02 (setting [3]).
For IQNKLSSTF, the Kd in the experiment with HLA-B*15:01 is 24 nM; with HLA-A*23:01 (setting [7]) it was 345 nM; with HLA-A*24:02 (setting [7]), 272 nM; with HLA-A*29:02 (setting [7]), at least 35000 nM.
For WCSQTNYQY, the Kd with HLA-A*01:01 (setting [8]) was 964 nM; with HLA-A*23:01 (setting [8]), at least 77700 nM; in the experiment with HLA-A*24:02 (setting [8]), at least 77500 nM; with HLA-A*26:01 (setting [8]), at least 77900 nM; with HLA-A*29:02 (setting [8]), 204 nM; with HLA-A*30:02 (setting [8]), 734 nM.
With LETPNLAERV, the equilibrium dissociation constant (Kd) with HLA-B*40:01 (source organism: Dengue virus 1 Singapore/S275/1990) came to 1010 nM.
On to QENPYRTWAY, for which the dissociation constant (Kd) in the experiment with HLA-B*40:01 (setting [4]) is 1600 nM; with HLA-B*44:02 (setting [4]), 7.66 nM; in the experiment with HLA-B*44:03 (setting [4]), 8.86 nM.
Regarding EEFLDYMPSM, the figures for the Kd with HLA-A*30:01, in the experiment with HLA-B*40:01 (setting [6]) and in the experiment with HLA-B*44:03 (setting [6]) were 2290 nM, 142 nM and 70.8 nM, respectively.
For LMANLAPHL, the Kd was 6080 nM in the experiment with HLA-A*01:01 (setting [3]); 11800 nM in the experiment with HLA-A*23:01 (setting [3]); at least 31200 nM in the experiment with HLA-A*24:02 (setting [3]); at least 77900 nM with HLA-A*26:01 (setting [3]); 3650 nM with HLA-A*29:02 (setting [3]); 12000 nM in the experiment with HLA-A*30:02 (setting [3]).
As for VEPWLKNNQF, the dissociation constant Kd with HLA-B*40:01 (setting [6]) stood at 1620 nM; with HLA-B*44:02 (setting [6]), 93.7 nM; with HLA-B*44:03 (setting [6]) it was 162 nM.
As to LYKLMGHFSW, the dissociation constant (Kd) in the experiment with HLA-A*01:01 (setting [3]) is 18400 nM; with HLA-A*23:01 (setting [3]), 89.6 nM; with HLA-A*24:02 (setting [3]) it was 83.1 nM; with HLA-A*26:01 (setting [3]), at least 20000 nM; with HLA-A*29:02 (setting [3]), 8090 nM; with HLA-A*30:02 (setting [3]), 17100 nM.
As to RYNLDPDTI, the dissociation constant (Kd) with HLA-A*23:01 (setting [9]) is 6790 nM; with HLA-A*24:02 (setting [9]), 2970 nM; with HLA-A*29:02 (setting [9]), at least 40600 nM.
In the case of KEFASGRKSI, the Kd in the experiment with HLA-B*40:01 (setting [4]) is 111 nM.
Turning to IPQWEPSKGW, in the experiment with HLA-B*53:01 (setting [5]), the dissociation constant (Kd) was found to be 90 nM.
Turning to IYQPESQKF, the Kd with HLA-A*23:01 (setting [10]) was 53.4 nM; in the experiment with HLA-A*24:02 (setting [10]) it was 33.5 nM; in the experiment with HLA-A*29:02 (setting [10]) it was 412 nM.
As to EERDDTLTIL, the Kd with HLA-B*40:01 (setting [5]) came out at 22 nM.

Source of the values: the Immune Epitope Database (IEDB).
